Experimental data: patent US20240400715A1 (VIBRANT PHARMA, published 2024)
Where “and” joins values, the source holds several entries; their conditions need not be identical. Equal entries are not always repeated.

Assays:
[1] = target: T1, human CD3ε/δ (ACRO systems, CDD-H52W1) (human, UniProt P07766 23-126; P04234 22-105); assay: BLI, antibody captured, antigen in solution;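 note: bispecific antibodies captured on AHIC biosensors to a 1.5 nm loading signal, in PBST with 0.02% detergent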
T1 construct: Bought protein; also called human CD3ϵ/CD3δ; human CD3 epsilon/delta antigen
Experimental: The bispecific antibodies were diluted to 5 ag/ml, and 1.5 nm protein was coupled to the surface of the AHIC sensor chip through 0.02% PBST.

[2] = target: T2, human CD3 on Jurkat cells (human, UniProt P07766 23-207; P04234 22-171; P09693 23-182); assay: FACS, Jurkat cells;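 note: flow cytometric binding of bispecific antibodies to Jurkat T cells, threefold serial dilutions incubated half an hour in the cold, EC50 taken from the fitted binding curve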
T2 construct: whole, on cells; CD3 complex as on Jurkat (Clone E6-1) cells; also called CD3 expressing cells (Jurkat)
Experimental: The binding of the bispecific antibodies was tested on the CA expressing human lung adenocarcinoma cell line (H1573) and the CD3 expressing immortalized T lymphocyte line (Jurkat). The steps are as follows: the cells were harvested, counted, and resuspended in FACS buffer (PBS containing 0.1% BSA) at 2×10⁶ cells/ml. 100 μl of cell suspension was incubated in a V-bottom 96-well plate at 4° C. with 3-fold serial dilutions of bispecific antibodies (20 μg/ml-0.009 μg/ml) for 30 minutes; washed twice with pre-cooled FACS buffer. […] GraphPadPrism was used to obtain the binding curve.

Row | Binder | Kd [1] | koff [1] | kon [1] | EC50 [2]
1 | 302 (TA3), configuration of FIG. 1W (bispecific antibody, IgG4, chains put together from VH/VL, CH1, knob-Fc; IgG4, kappa; also called CEA-CD3 bispecific antibody 302; not shown: kappa light chain constant domain (CL)) heavy: EVQLVESGGGLVQPGGSLRLSCAASGYSFTGYTMNWVRQAPGKGLEWVALINPYKGVSTYNQKFKDRFTISVDKSKNTAYLQMNSLRAEDTAVYYCARSGYYGDSDWYFDVWGQGTLVTVSSASTKGPSVFPLAPCSRSTSESTAALGCLVKDYFPEPVTVSWNSGALTSGVHTFPAVLQSSGLYSLSSVVTVPSSSLGTKTYTCNVDHKPSNTKVDKRVESKYGPPCPPCPAPEAAGGPSVFLFPPKPKDTLMISRTPEVTCVVVDVSQEDPEVQFNWYVDGVEVHNAKTKPREEQFNSTYRVVSVLTVLHQDWLNGKEYKCKVSNKGLPSSIEKTISKAKGQPREPQVYTLPPCQEEMTKNQVSLWCLVKGFYPSDIAVEWESNGQPENNYKTTPPVLDSDGSFFLYSRLTVDKSRWQEGNVFSCSVMHEALHNHYTQKSLSLSL EVQLVESGGGFVQAGESLTLSCTSSTLTFTPYRMAWYRQAPGKQRDLVADISSGDGRTTNYADFAKGRFTISRDNIKNTVFLRMTNLKPEDTAVYYCNTFVSFVGIARSWGQGTQVTVSSESKYGPPCPPCPAPEAAGGPSVFLFPPKPKDTLMISRTPEVTCVVVDVSQEDPEVQFNWYVDGVEVHNAKTKPREEQFNSTYRVVSVLTVLHQDWLNGKEYKCKVSNKGLPSSIEKTISKAKGQPREPQVCTLPPSQEEMTKNQVSLSCAVKGFYPSDIAVEWESNGQPENNYKTTPPVLDSDGSFFLVSRLTVDKSRWQEGNVFSCSVMHEALHNRFTQKSLSLSL light: DIQMTQSPSSLSASVGDRVTITCRASQDIRNYLNWYQQKPGKAPKLLIYYTSRLESGVPSRFSGSGSGTDYTLTISSLQPEDFATYYCQQGNTLPWTFGQGTKVEIK | 3.63 nM | 0.000879 s⁻¹ | 246000 M⁻¹ s⁻¹ | 1.4 µg/mL and 10.8 nM
2 | CEA-Fab-Knob-+Hole (203) (bispecific antibody, human IgG4 S228P, kappa, F234A L235A, VHH linked to the VL of the Fab; human IgG4 knob-into-hole Fc) heavy: EVKLLESGGGLVQPKGSLKLSCAASGFTFNTYAMNWVRQAPGKGLEWVARIRSKYNNYATYYADSVKDRFTISRDDSQSILYLQMNNLKTEDTAMYYCVRHGNFGNSYVSWFAYWGQGTLVTVSSASTKGPSVFPLAPCSRSTSESTAALGCLVKDYFPEPVTVSWNSGALTSGVHTFPAVLQSSGLYSLSSVVTVPSSSLGTKTYTCNVDHKPSNTKVDKRVESKYGPPCPPCPAPEAAGGPSVFLFPPKPKDTLMISRTPEVTCVVVDVSQEDPEVQFNWYVDGVEVHNAKTKPREEQFNSTYRVVSVLTVLHQDWLNGKEYKCKVSNKGLPSSIEKTISKAKGQPREPQVYTLPPCQEEMTKNQVSLWCLVKGFYPSDIAVEWESNGQPENNYKTTPPVLDSDGSFFLYSRLTVDKSRWQEGNVFSCSVMHEALHNHYTQKSLSLSL ESKYGPPCPPCPAPEAAGGPSVFLFPPKPKDTLMISRTPEVTCVVVDVSQEDPEVQFNWYVDGVEVHNAKTKPREEQFNSTYRVVSVLTVLHQDWLNGKEYKCKVSNKGLPSSIEKTISKAKGQPREPQVCTLPPSQEEMTKNQVSLSCAVKGFYPSDIAVEWESNGQPENNYKTTPPVLDSDGSFFLVSRLTVDKSRWQEGNVFSCSVMHEALHNRFTQKSLSLSL light: EVQLVESGGGFVQAGESLTLSCTSSTLTFTPYRMAWYRQAPGKQRDLVADISSGDGRTTNYADFAKGRFTISRDNIKNTVFLRMTNLKPEDTAVYYCNTFVSFVGIARSWGQGTQVTVSSGGGGSGGGGSQAVVTQESALTTSPGETVTLTCRSSTGAVTTSNYANWVQEKPDHLFTGLIGGTNKRAPGVPARFSGSLIGDKAALTITGAQTEDEAIYFCALWYSNLWVFGGGTKVEIKRTVAAPSVFIFPPSDEQLKSGTASVVCLLNNFYPREAKVQWKVDNALQSGNSQESVTEQDSKDSTYSLSSTLTLSKADYEKHKVYACEVTHQGLSSPVTKSFNRGEC | 2.51 nM | 0.000621 s⁻¹ | 248000 M⁻¹ s⁻¹ | 0.29 µg/mL and 2.23 nM
3 | CEA-Knob+Fab-Hole (104) (bispecific antibody, human IgG4 S228P, kappa, F234A L235A, Anti-CD3 TA1 Fab + anti-CEA VHH C17 on human IgG4 knob-into-hole Fc) EVQLVESGGGFVQAGESLTLSCTSSTLTFTPYRMAWYRQAPGKQRDLVADISSGDGRTTNYADFAKGRFTISRDNIKNTVFLRMTNLKPEDTAVYYCNTFVSFVGIARSWGQGTQVTVSSESKYGPPCPPCPAPEAAGGPSVFLFPPKPKDTLMISRTPEVTCVVVDVSQEDPEVQFNWYVDGVEVHNAKTKPREEQFNSTYRVVSVLTVLHQDWLNGKEYKCKVSNKGLPSSIEKTISKAKGQPREPQVYTLPPCQEEMTKNQVSLWCLVKGFYPSDIAVEWESNGQPENNYKTTPPVLDSDGSFFLYSRLTVDKSRWQEGNVFSCSVMHEALHNHYTQKSLSLSL heavy: EVKLLESGGGLVQPKGSLKLSCAASGFTFNTYAMNWVRQAPGKGLEWVARIRSKYNNYATYYADSVKDRFTISRDDSQSILYLQMNNLKTEDTAMYYCVRHGNFGNSYVSWFAYWGQGTLVTVSSASTKGPSVFPLAPCSRSTSESTAALGCLVKDYFPEPVTVSWNSGALTSGVHTFPAVLQSSGLYSLSSVVTVPSSSLGTKTYTCNVDHKPSNTKVDKRVESKYGPPCPPCPAPEAAGGPSVFLFPPKPKDTLMISRTPEVTCVVVDVSQEDPEVQFNWYVDGVEVHNAKTKPREEQFNSTYRVVSVLTVLHQDWLNGKEYKCKVSNKGLPSSIEKTISKAKGQPREPQVCTLPPSQEEMTKNQVSLSCAVKGFYPSDIAVEWESNGQPENNYKTTPPVLDSDGSFFLVSRLTVDKSRWQEGNVFSCSVMHEALHNRFTQKSLSLSL light: QAVVTQESALTTSPGETVTLTCRSSTGAVTTSNYANWVQEKPDHLFTGLIGGTNKRAPGVPARFSGSLIGDKAALTITGAQTEDEAIYFCALWYSNLWVFGGGTKVEIKRTVAAPSVFIFPPSDEQLKSGTASVVCLLNNFYPREAKVQWKVDNALQSGNSQESVTEQDSKDSTYSLSSTLTLSKADYEKHKVYACEVTHQGLSSPVTKSFNRGEC | 0.839 nM | 0.0003 s⁻¹ | 357000 M⁻¹ s⁻¹ | 3.35 µg/mL and 25.8 nM

Continued, values first:

Row | Kd [1] | koff [1] | kon [1] | EC50 [2] | Binder
4 | 3.9 nM | 0.000866 s⁻¹ | 222000 M⁻¹ s⁻¹ | 0.292 µg/mL and 2.25 nM | Knob+CEA-Fab-Hole (202) (bispecific antibody, human IgG4 S228P, kappa, F234A L235A, VHH linked to the CL of the Fab; human IgG4 knob-into-hole Fc) ESKYGPPCPPCPAPEAAGGPSVFLFPPKPKDTLMISRTPEVTCVVVDVSQEDPEVQFNWYVDGVEVHNAKTKPREEQFNSTYRVVSVLTVLHQDWLNGKEYKCKVSNKGLPSSIEKTISKAKGQPREPQVYTLPPCQEEMTKNQVSLWCLVKGFYPSDIAVEWESNGQPENNYKTTPPVLDSDGSFFLYSRLTVDKSRWQEGNVFSCSVMHEALHNHYTQKSLSLSL heavy: EVKLLESGGGLVQPKGSLKLSCAASGFTFNTYAMNWVRQAPGKGLEWVARIRSKYNNYATYYADSVKDRFTISRDDSQSILYLQMNNLKTEDTAMYYCVRHGNFGNSYVSWFAYWGQGTLVTVSSASTKGPSVFPLAPCSRSTSESTAALGCLVKDYFPEPVTVSWNSGALTSGVHTFPAVLQSSGLYSLSSVVTVPSSSLGTKTYTCNVDHKPSNTKVDKRVESKYGPPCPPCPAPEAAGGPSVFLFPPKPKDTLMISRTPEVTCVVVDVSQEDPEVQFNWYVDGVEVHNAKTKPREEQFNSTYRVVSVLTVLHQDWLNGKEYKCKVSNKGLPSSIEKTISKAKGQPREPQVCTLPPSQEEMTKNQVSLSCAVKGFYPSDIAVEWESNGQPENNYKTTPPVLDSDGSFFLVSRLTVDKSRWQEGNVFSCSVMHEALHNRFTQKSLSLSL light: QAVVTQESALTTSPGETVTLTCRSSTGAVTTSNYANWVQEKPDHLFTGLIGGTNKRAPGVPARFSGSLIGDKAALTITGAQTEDEAIYFCALWYSNLWVFGGGTKVEIKRTVAAPSVFIFPPSDEQLKSGTASVVCLLNNFYPREAKVQWKVDNALQSGNSQESVTEQDSKDSTYSLSSTLTLSKADYEKHKVYACEVTHQGLSSPVTKSFNRGECGGGGSGGGGSEVQLVESGGGFVQAGESLTLSCTSSTLTFTPYRMAWYRQAPGKQRDLVADISSGDGRTTNYADFAKGRFTISRDNIKNTVFLRMTNLKPEDTAVYYCNTFVSFVGIARSWGQGTQVTVSS
5 | 0.662 nM | 0.000233 s⁻¹ | 352000 M⁻¹ s⁻¹ | 0.848 µg/mL and 6.52 nM | Fab-Knob+Hole-CEA (103) (bispecific antibody, human IgG4 S228P, kappa, F234A L235A, Anti-CD3 TA1 Fab + anti-CEA VHH C17 on human IgG4 knob-into-hole Fc) heavy: EVKLLESGGGLVQPKGSLKLSCAASGFTFNTYAMNWVRQAPGKGLEWVARIRSKYNNYATYYADSVKDRFTISRDDSQSILYLQMNNLKTEDTAMYYCVRHGNFGNSYVSWFAYWGQGTLVTVSSASTKGPSVFPLAPCSRSTSESTAALGCLVKDYFPEPVTVSWNSGALTSGVHTFPAVLQSSGLYSLSSVVTVPSSSLGTKTYTCNVDHKPSNTKVDKRVESKYGPPCPPCPAPEAAGGPSVFLFPPKPKDTLMISRTPEVTCVVVDVSQEDPEVQFNWYVDGVEVHNAKTKPREEQFNSTYRVVSVLTVLHQDWLNGKEYKCKVSNKGLPSSIEKTISKAKGQPREPQVYTLPPCQEEMTKNQVSLWCLVKGFYPSDIAVEWESNGQPENNYKTTPPVLDSDGSFFLYSRLTVDKSRWQEGNVFSCSVMHEALHNHYTQKSLSLSL ESKYGPPCPPCPAPEAAGGPSVFLFPPKPKDTLMISRTPEVTCVVVDVSQEDPEVQFNWYVDGVEVHNAKTKPREEQFNSTYRVVSVLTVLHQDWLNGKEYKCKVSNKGLPSSIEKTISKAKGQPREPQVCTLPPSQEEMTKNQVSLSCAVKGFYPSDIAVEWESNGQPENNYKTTPPVLDSDGSFFLVSRLTVDKSRWQEGNVFSCSVMHEALHNRFTQKSLSLSLGGGGSGGGGSEVQLVESGGGFVQAGESLTLSCTSSTLTFTPYRMAWYRQAPGKQRDLVADISSGDGRTTNYADFAKGRFTISRDNIKNTVFLRMTNLKPEDTAVYYCNTFVSFVGIARSWGQGTQVTVSS light: QAVVTQESALTTSPGETVTLTCRSSTGAVTTSNYANWVQEKPDHLFTGLIGGTNKRAPGVPARFSGSLIGDKAALTITGAQTEDEAIYFCALWYSNLWVFGGGTKVEIKRTVAAPSVFIFPPSDEQLKSGTASVVCLLNNFYPREAKVQWKVDNALQSGNSQESVTEQDSKDSTYSLSSTLTLSKADYEKHKVYACEVTHQGLSSPVTKSFNRGEC
